Positions count from the first letter of the chain named.
B1: VH3/Vκ2 Composite Human Antibody variant of HLMC (antibody, human IgG1, kappa, V domains shown)
VH: QAQLVQSGAEVKKPGASVKVSCKASGYLFSNSWMNWVKQRRGAGLEWIGRIFPGDGDTNYNGKFKGRATITADKSTSTAYMELSSLRSEDTAVYFCARWGLTRDRRLYLDYWGQGTTVTVSS
VL: DIVMTQSPDSLAVSLGERATINCKSSQSLLYSSNQKNYLAWYQQKPGQAPRLLIYWASTRESGVPDRFTGSGSGTDFTLTISSLQAEDVAVYYCKQYYTYPLTFGQGTKLEIKR
notes: also called VH3/Vk2
B2: VH1/Vκ2 Composite Human Antibody variant of HLMC (antibody, human IgG1, kappa, V domains shown)
VH: B1 VH with A9P, V11L, R41P, T91S
VL: B1 VL
notes: also called VH1/Vk2
B3: VH2/Vκ3 Composite Human Antibody variant of HLMC (antibody, human IgG1, kappa, V domains shown)
VH: B1 VH with A9P, R41P
VL: B1 VL with T69S
notes: also called VH2/Vk3
B4: VH2/Vκ1 Composite Human Antibody variant of HLMC (antibody, human IgG1, kappa, V domains shown)
VH: B1 VH with A9P, R41P
VL: B1 VL with A12V, P46S
notes: also called VH2/Vk1
B5: VH1/Vκ3 Composite Human Antibody variant of HLMC (antibody, human IgG1, kappa, V domains shown)
VH: B1 VH with A9P, V11L, R41P, T91S
VL: B1 VL with T69S
notes: also called VH1/Vk3
B6: VH4/Vκ1 Composite Human Antibody variant of HLMC (antibody, human IgG1, kappa, V domains shown)
VH: B1 VH with A68V
VL: B1 VL with A12V, P46S
notes: also called Vh4/Vk1; VH4/Vk1
B7: VH5/Vκ1 Composite Human Antibody variant of HLMC (antibody, human IgG1, kappa, V domains shown)
VH: B1 VH with A68V, F95Y
VL: B1 VL with A12V, P46S
notes: also called VH5/Vk1
B8: VH5/Vκ3 Composite Human Antibody variant of HLMC (antibody, human IgG1, kappa, V domains shown)
VH: B1 VH with A68V, F95Y
VL: B1 VL with T69S
notes: also called VH5/Vk3
B9: VH2/Vκ2 Composite Human Antibody variant of HLMC (antibody, human IgG1, kappa, V domains shown)
VH: B1 VH with A9P, R41P
VL: B1 VL
notes: also called VH2/Vk2
B10: VH3/Vκ1 Composite Human Antibody variant of HLMC (antibody, human IgG1, kappa, V domains shown)
VH: B1 VH
VL: B1 VL with A12V, P46S
notes: also called VH3/Vk1
B11: VH3/Vκ3 Composite Human Antibody variant of HLMC (antibody, human IgG1, kappa, V domains shown)
VH: B1 VH
VL: B1 VL with T69S
notes: also called VH3/Vk3
B12: VH4/Vκ3 Composite Human Antibody variant of HLMC (antibody, human IgG1, kappa, V domains shown)
VH: B1 VH with A68V
VL: B1 VL with T69S
notes: also called VH4/Vk3

Each binder was assayed against T1, alphaVbeta3 integrin, native human, on rhabdomyosarcoma (RD) cells and on human umbilical vein endothelial … (human, UniProt P06756 31-1048; P05106 27-788) (assay: flow cytometry on RD cells expressing alphaVbeta3; reference chimeric HLMC).
T1 construct: whole, on cells; also called αVβ3; native human β3
T1 sequence (P06756 31-1048, chain 1 of 2): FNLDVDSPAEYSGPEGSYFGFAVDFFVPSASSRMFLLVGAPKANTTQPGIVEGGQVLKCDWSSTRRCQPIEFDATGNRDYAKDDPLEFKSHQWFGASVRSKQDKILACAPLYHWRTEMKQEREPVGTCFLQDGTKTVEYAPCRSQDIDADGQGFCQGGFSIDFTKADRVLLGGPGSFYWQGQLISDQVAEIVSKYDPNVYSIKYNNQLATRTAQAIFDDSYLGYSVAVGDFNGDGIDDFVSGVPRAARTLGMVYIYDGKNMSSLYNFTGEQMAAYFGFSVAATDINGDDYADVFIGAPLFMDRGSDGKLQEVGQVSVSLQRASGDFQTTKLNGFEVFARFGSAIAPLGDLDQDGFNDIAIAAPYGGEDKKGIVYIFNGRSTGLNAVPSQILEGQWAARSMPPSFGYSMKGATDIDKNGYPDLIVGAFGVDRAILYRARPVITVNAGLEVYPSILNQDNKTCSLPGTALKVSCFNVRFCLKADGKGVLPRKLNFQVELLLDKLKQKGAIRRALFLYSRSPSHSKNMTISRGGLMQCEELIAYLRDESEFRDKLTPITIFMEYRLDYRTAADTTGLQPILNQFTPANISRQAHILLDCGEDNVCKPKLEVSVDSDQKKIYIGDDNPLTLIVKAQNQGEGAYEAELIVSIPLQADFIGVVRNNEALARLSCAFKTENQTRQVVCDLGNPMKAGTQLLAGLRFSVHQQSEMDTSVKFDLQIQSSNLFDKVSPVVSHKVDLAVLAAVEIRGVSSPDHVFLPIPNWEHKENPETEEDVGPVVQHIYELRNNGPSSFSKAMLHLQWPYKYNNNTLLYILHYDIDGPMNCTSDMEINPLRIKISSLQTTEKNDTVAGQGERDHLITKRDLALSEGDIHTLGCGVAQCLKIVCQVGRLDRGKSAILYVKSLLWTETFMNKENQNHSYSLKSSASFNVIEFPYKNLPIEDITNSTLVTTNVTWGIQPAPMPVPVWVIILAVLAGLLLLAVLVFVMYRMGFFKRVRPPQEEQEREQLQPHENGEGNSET
T1 sequence (P05106 27-788, chain 2 of 2): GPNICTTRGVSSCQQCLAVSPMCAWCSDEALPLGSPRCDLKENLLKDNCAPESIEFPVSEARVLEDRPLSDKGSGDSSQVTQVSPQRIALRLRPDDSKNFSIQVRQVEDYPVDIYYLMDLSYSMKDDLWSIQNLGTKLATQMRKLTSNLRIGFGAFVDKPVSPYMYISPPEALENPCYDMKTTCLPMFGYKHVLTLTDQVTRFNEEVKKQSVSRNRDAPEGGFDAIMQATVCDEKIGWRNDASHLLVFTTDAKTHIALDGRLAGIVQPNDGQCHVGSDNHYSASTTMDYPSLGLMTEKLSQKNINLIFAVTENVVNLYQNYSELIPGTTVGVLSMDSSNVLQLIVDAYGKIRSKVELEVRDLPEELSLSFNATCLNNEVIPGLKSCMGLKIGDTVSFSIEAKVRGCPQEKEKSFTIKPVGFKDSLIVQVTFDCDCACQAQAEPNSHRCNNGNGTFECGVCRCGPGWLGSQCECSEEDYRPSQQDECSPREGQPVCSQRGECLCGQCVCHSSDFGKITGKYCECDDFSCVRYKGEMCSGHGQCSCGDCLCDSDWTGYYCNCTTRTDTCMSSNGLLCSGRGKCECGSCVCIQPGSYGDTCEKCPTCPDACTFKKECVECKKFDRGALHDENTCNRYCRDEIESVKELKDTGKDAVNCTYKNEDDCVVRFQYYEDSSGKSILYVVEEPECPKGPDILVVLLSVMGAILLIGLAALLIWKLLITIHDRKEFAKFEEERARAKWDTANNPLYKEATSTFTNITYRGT
Experimental: (§1) The binding of NS0-derived HLMC Composite Human Antibody™ variants to rhabdomyosarcoma (RD) cells expressing alphaVbeta3 integrin was assessed in a flow cytometry binding assay. Briefly, a subconfluent monolayer of RD cells was prepared and incubated in serum free medium for 24 hours prior to harvest. […] Cells were resuspended into a suitable volume of cold FACS buffer (1% FBS/0.01% sodium azide/PBS) to yield a final cell density of 4×10⁶ cells/ml.
(§2) The plates were incubated at 4° C. for 1 hour. Cells were washed with FACS buffer, resuspended in 100 μl of secondary antibody (Sigma Cat. No. P8047, goat anti-human IgG (γ chain specific; PE conjugated) and incubated for 1 hour at 4° C. Cells were washed twice, resuspended in a final volume of 175 μl FACS buffer and transferred to FACS tubes. Fluorescence was measured by flow cytometry and data plotted as normalized % positive events (gated in R2).

| Binder | relative binding score (EC50 of variant divided by EC50 of chimeric HLMC) |
| --- | --- |
| B1 | 13.2 ratio |
| B2 | 1.52 ratio |
| B3 | 1.03 ratio |
| B4 | 1.27 ratio |
| B5 | 1.14 ratio |
| B6 | 0.87 ratio |
| B7 | 1.23 ratio |
| B8 | 0.88 ratio |
| B9 | 1.37 ratio |
| B10 | 1.35 ratio |
| B11 | 0.87 ratio |
| B12 | 0.57 ratio |

What follows are binders tested against T1, alphaVbeta3 integrin, native human, on … (assay: flow cytometry on RD cells expressing alphaVbeta3, PE anti-human IgG; EC50 = concentration where 50% of cells gated in R2).
Experimental: as §1, §2

| Binder | EC50 |
| --- | --- |
| B1 | 47.4 nM |
| B2 | 5.43 nM |
| B3 | 3.7 nM |
| B4 | 4.55 nM |
| B5 | 4.08 nM |
| B6 | 3.12 nM |
| B7 | 4.42 nM |
| B8 | 3.15 nM |
| B9 | 4.92 nM |
| B10 | 4.85 nM |
| B11 | 3.13 nM |
| B12 | 2.03 nM |
